B1: Transcription initiation factor IIA subunit 2 (Homo sapiens), P52657 (parent)
chain: MAYQLYRNTTLGNSLQESLDELIQSQQITPQLALQVLLQFDKAINAALAQRVRNRVNFRGSLNTYRFCDNVWTFVLNDVEFREVTELIKVDKVKIVACDGKNTGSNTTE
partner: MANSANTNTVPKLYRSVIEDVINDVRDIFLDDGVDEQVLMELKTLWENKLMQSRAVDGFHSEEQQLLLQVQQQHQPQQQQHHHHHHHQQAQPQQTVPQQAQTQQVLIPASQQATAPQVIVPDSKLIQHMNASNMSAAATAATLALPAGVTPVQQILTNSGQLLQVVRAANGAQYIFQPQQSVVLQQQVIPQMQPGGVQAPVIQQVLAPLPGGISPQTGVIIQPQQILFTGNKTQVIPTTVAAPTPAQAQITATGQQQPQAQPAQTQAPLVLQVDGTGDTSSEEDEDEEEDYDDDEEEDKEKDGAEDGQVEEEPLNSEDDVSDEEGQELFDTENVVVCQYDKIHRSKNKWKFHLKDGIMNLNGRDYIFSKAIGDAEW
B2: Transcription initiation factor IIA subunit 2 (Homo sapiens), P52657 (parent)
chain: B1 chain

Variants of: B1
Conditions: with tf2aa_human GTF2A1, P52655

Row | effect of a mutation on the interaction | Variant
1 | decreasing interaction | F40A
2 | decreasing interaction | D41A
3 | decreasing interaction | E109A
4 | decreasing interaction | K42A

Variants of: B2
Conditions: with tbp_human TBP

Row | effect of a mutation on the interaction | Variant
5 | decreasing interaction | Y65A
6 | decreasing interaction | D20A
